By Kd is commonly meant the equilibrium constant for the complex coming apart. High values mean a looser complex, low ones a tighter complex. The stoichiometry N is the number of molecules, sites or subunits per partner or assembly.

Here are results for 4 molecules from doi:10.1101/2022.08.19.504532 (bioRxiv, 2022).

Values joined by “and” are separate entries in the source; they are usually repeats but may differ in a detail not shown here. Equal values may be shown once.

Series [1] deals with 3xFLAG-BIRC6 (full-length, wild type) (human) (UniProt Q9NR09). Nature of the series: FRET or BRET. On the technique in general: BRET reads energy transfer from a luciferase to a nearby fluorophore.
The target in series [2] is FLAG-BIRC6 (full-length baculoviral IAP repeat-containing protein 6) (human) (UniProt Q9NR09). As to the kind of experiment: cryo-EM structure. As to conditions: remark: other sources report otherwise.
The target of series [3] is 3xFLAG-BIRC6 BIRmut (C328S/C331S) (human, UniProt Q9NR09 1-4857, C328S | C331S). As to the kind of experiment: FRET or BRET.
Series [4] has as its target 3xFLAG-BIRC6 (full-length, wild type) (human, UniProt Q9NR09 1-4857). As to the kind of experiment: FRET or BRET.
The target of series [5] is 3xFLAG-BIRC6 ΔHelix (aa1616-1666 removed) (human, UniProt Q9NR09 1-4857, ΔHelix, aa1616-1666 removed). Nature of the series: FRET or BRET.
The series “cryo-EM structure” concerns the molecule itself. As to the kind of experiment: cryo-EM structure.
Series [6] deals with FLAG-BIRC6 (full-length baculoviral IAP repeat-containing protein 6) (human, UniProt Q9NR09 1-4857). As to the kind of experiment: cryo-EM structure.

“BODIPY-labeled caspase-7 (from UniProt P55210 1-303) (enzyme)”: the Kd in series [1] is 4 nM.

Consider “FLAG-BIRC6 (full-length baculoviral IAP repeat-containing protein 6), Q9NR09 1-4857”, for which the stoichiometry N in series [2] was determined as 2.

B1: BODIPY-labeled Smac-Cys (natural protein)
chain: AVPIAQKSEPHSLSSEALMRRAVSLVTDSTSTFLSQTTYALIEAITEYTKAVYTLTSLYRQYTSLLGKMNSEEEDEVWQVIIGARAEMTSKHQEYLKLETTWMTAVGLSEMAAEAAYQTGADQASITARNHIQLVKLQVEEVHQLSRKAETKLAEAQIEELRQKTQEEGEERAESEQEAYLREDC
modifications: BODIPY FL Maleimide on the introduced cysteine (degree of labeling 0.48)
For the molecule B1, the Kd is 26 ± 2 nM in series [3]; < 2 nM and 2 nM in series [4]; 30 ± 5 nM in series [5]. Moreover, the binding result in series [4] was “binds”.

B2: Smac-His9 (mature Smac without the N-terminal mitochondrial targeting sequence) (natural protein)
chain: AVPIAQKSEPHSLSSEALMRRAVSLVTDSTSTFLSQTTYALIEAITEYTKAVYTLTSLYRQYTSLLGKMNSEEEDEVWQVIIGARAEMTSKHQEYLKLETTWMTAVGLSEMAAEAAYQTGADQASITARNHIQLVKLQVEEVHQLSRKAETKLAEAQIEELRQKTQEEGEERAESEQEAYLRED
Take B2: the “stoichiometry N” value in the series “cryo-EM structure” came out at 2. The binding result in series [6] is listed as “binds”.
